± gives the standard deviation of the averaged measurements.
How the values were obtained:
hTERT-HMEC = experiment: percentage of EdU-negative (G0-arrested) nuclei per well, 72 h; higher = more G0 arrest; conditions: reference: sequence is the full UniProt precursor, the tested protein was the secreted form or ectodomain
MCF7 = experiment: as above; conditions: reference: sequence is the full UniProt precursor, the tested protein was the secreted form or ectodomain
[1] = protein concentration 0.0225 µM
[2] = protein concentration 0.0357143 µM
[3] = protein concentration 0.357143 µM
[4] = protein concentration 0.0135 µM
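Also: secreted proteins added to cultured cells, EdU pulse at the end, nuclei found by Hoechst imaging, EdU status from nuclear versus surrounding ring intensity ratio, PBS as neutral control.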

Sequence | percentage of EdU-negative (hTERT-HMEC; [1]) | percentage of EdU-negative (hTERT-HMEC; protein concentration 0.225 µM) | percentage of EdU-negative (MCF7; [1]) | percentage of EdU-negative (MCF7; protein concentration 0.225 µM) | percentage of EdU-negative (hTERT-HMEC; [2]) | percentage of EdU-negative (hTERT-HMEC; [3]) | percentage of EdU-negative (MCF7; [2]) | percentage of EdU-negative (MCF7; [3]) | further results
MWLLLTLSFLLASTAAQDGDKLLEGDECAPHSQPWQVALYERGRFNCGASLISPHWVLSAAHCQSRFMRVRLGEHNLRKRDGPEQLRTTSRVIPHPRYEARSHRNDIMLLRLVQPARLNPQVRPAVLPTRCPHPGEACVVSGWGLVSHNEPGTAGSPRSQVSLPDTLHCANISIISDTSCDKSYPGRLTNTMVCAGAEGRGAESCEGDSGGPLVCGGILQGIVSWGDVPCDNTTKPGVYTKVCHYLEWIRETMKRN [Q9H2R5] | 5.58 ± 0.041% | 5.86 ± 1.2% | 22.4 ± 2% | 25.76 ± 0.13% |  |  |  |  | 
MWLLPALLLLCLSGCLSLKGPGSVTGTAGDSLTVWCQYESMYKGYNKYWCRGQYDTSCESIVETKGEEKVERNGRVSIRDHPEALAFTVTMQNLNEDDAGSYWCKIQTVWVLDSWSRDPSDLVRVYVSPAITTPRRTTHPATPPIFLVVNPGRNLSTGEVLTQNSGFRLSSPHFLLVVLLKLPLLLSMLGAVFWVNRPQWAPPGR [Q496F6] | 5.54 ± 0.7% | 5.97 ± 1.6% | 23.3 ± 1.9% | 26.6 ± 0.81% |  |  |  |  | 
MWLLVSVILISRISSVGGEAMFCDFPKINHGILYDEEKYKPFSQVPTGEVFYYSCEYNFVSPSKSFWTRITCAEEGWSPTPKCLRLCFFPFVENGHSESSGQTHLEGDTVQIICNTGYRLQNNENNISCVERGWSTPPKCRSTISAEKCGPPPPIDNGDITSFLLSVYAPGSSVEYQCQNLYQLEGNNQITCRNGQWSEPPKCLDPCVISQEIMEKYNIKLKWTNQQKLYSRTGDIVEFVCKSGYHPTKSHSFRAMCQNGKLVYPSCEEK |  |  |  |  | 5.7 ± 0.61% | 17.5 ± 3.6% | 26.5 ± 2.9% | 27.9 ± 1.9% | 
MWLLVSVILISRISSVGGEATFCDFPKINHGILYDEEKYKPFSQVPTGEVFYYSCEYNFVSPSKSFWTRITCTEEGWSPTPKCLRLCFFPFVENGHSESSGQTHLEGDTVQIICNTGYRLQNNENNISCVERGWSTPPKCRSTDTSCVNPPTVQNAHILSRQMSKYPSGERVRYECRSPYEMFGDEEVMCLNGNWTEPPQCKDSTGKCGPPPPIDNGDITSFPLSVYAPASSVEYQCQNLYQLEGNKRITCRNGQWSEPPKCLHPCVISREIMENYNIALRWTAKQKLYLRTGESAEFVCKRGYRLSSRSHTLRTTCWDGKLEYPTCAKR |  |  |  |  |  |  |  |  | percentage of EdU-negative (hTERT-HMEC; [4]): 5.26 ± 0.45%; percentage of EdU-negative (hTERT-HMEC; protein concentration 0.135 µM): 5.53 ± 0.48%; percentage of EdU-negative (MCF7; [4]): 25.1 ± 1.9%; percentage of EdU-negative (MCF7; protein concentration 0.135 µM): 25.3 ± 0.89%
MWLPRVSSTAVTALLLAQTFLLLFLVSRPGPSSPAGGEARVHVLVLSSWRSGSSFVGQLFNQHPDVFYLMEPAWHVWTTLSQGSAATLHMAVRDLVRSVFLCDMDVFDAYLPWRRNLSDLFQWAVSRALCSPPACSAFPRGAISSEAVCKPLCARQSFTLAREACRSYSHVVLKEVRFFNLQVLYPLLSDPALNLRIVHLVRDPRAVLRSREQTAKALARDNGIVLGTNGTWVEADPGLRVVREVCRSHVRIAEAATLKPPPFLRGRYRLVRFEDLAREPLAEIRALYAFTGLSLTPQLEAWIHNITHGSGPGARREAFKTSSRNALNVSQAWRHALPFAKIRRVQELCAGALQLLGYRPVYSEDEQRNLALDLVLPRGLNGFTWASSTASHPRN [Q9GZX3] | 5.21 ± 0.9% | 23.2 ± 3.6% | 24.3 ± 0.37% | 31 ± 0.51% |  |  |  |  | 
MWLRAFILATLSASAAWGHPSSPPVVDTVHGKVLGKFVSLEGFAQPVAIFLGIPFAKPPLGPLRFTPPQPAEPWSFVKNATSYPPMCTQDPKAGQLLSELFTNRKENIPLKLSEDCLYLNIYTPADLTKKNRLPVMVWIHGGGLMVGAASTYDGLALAAHENVVVVTIQYRLGIWGFFSTGDEHSRGNWGHLDQVAALRWVQDNIASFGGNPGSVTIFGESAGGESVSVLVLSPLAKNLFHRAISESGVALTSVLVKKGDVKPLAEQIAITAGCKTTTSAVMVHCLRQKTEEELLETTLKMKFLSLDLQGDPRESQPLLGTVIDGMLLLKTPEELQAERNFHTVPYMVGINKQEFGWLIPMQLMSYPLSEGQLDQKTAMSLLWKSYPLVCIAKELIPEATEKYLGGTDDTVKKKDLFLDLIADVMFGVPSVIVARNHRDAGAPTYMYEFQYRPSFSSDMKPKTVIGDHGDELFSVFGAPFLKEGASEEEIRLSKMVMKFWANFARNGNPNGEGLPHWPEYNQKEGYLQIGANTQAAQKLKDKEVAFWTNLFAKKAVEKPPQTEHIEL |  |  |  |  | 4.96 ± 0.78% | 6.05 ± 0.03% | 23.32 ± 0.21% | 24.5 ± 1.9% | 

Source: the supplement of paper PMC11316812
